Assay results: patent EP4717714A1

Biological target: PD-1 antigen with murine Fc tags (human) (UniProt Q15116)
Experiment: SPR (Biacore T200), PD-1-mFc captured by anti-mouse Fc antibody, 100 nM antibody injected

PD-1 antigen with murine Fc tags (human), sequence (Q15116 25-167 limits assumed): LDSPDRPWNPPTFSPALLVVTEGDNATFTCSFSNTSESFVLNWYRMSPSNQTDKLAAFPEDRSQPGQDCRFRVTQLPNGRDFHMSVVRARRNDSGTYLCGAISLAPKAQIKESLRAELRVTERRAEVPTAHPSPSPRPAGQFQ

Bound antibody signal (RU): 128 RU
B1: JS001 (recombinant humanized anti-PD-1 monoclonal antibody reference article, Toripalimab) (antibody, human IgG4 S228P, kappa, V domains shown)
VH: QGQLVQSGAEVKKPGASVKVSCKASGYTFTDYEMHWVRQAPIHGLEWIGVIESETGGTAYNQKFKGRVTITADKSTSTAYMELSSLRSEDTAVYYCAREGITTVATTYYWYFDVWGQGTTVTVSS
VL: DVVMTQSPLSLPVTLGQPASISCRSSQSIVHSNGNTYLEWYLQKPGQSPQLLIYKVSNRFSGVPDRFSGSGSGTDFTLKISRVEAEDVGVYYCFQGSHVPLTFGQGTKLEIKR
